Test results as given in the supplement of paper PMC11246515.
± gives the standard deviation of the averaged measurements.

Assay: total protein half-life in vivo (active degradation + dilution); higher = more stable protein
[1] = E. coli NCM3722 delta-clpP delta-lon delta-hslV, growth: N-lim chemostat, doubling time 6 h
[2] = E. coli NCM3722 delta-clpP, growth: N-lim chemostat, doubling time 6 h
[3] = E. coli NCM3722 delta-hslV, growth: N-lim chemostat, doubling time 6 h
[4] = E. coli NCM3722 delta-lon, growth: N-lim chemostat, doubling time 6 h
[5] = E. coli NCM3722 delta-smpB, growth: N-lim chemostat, doubling time 6 h
[6] = wild type E. coli NCM3722, growth: C-lim chemostat, doubling time 3 h
[7] = wild type E. coli NCM3722, growth: C-lim chemostat, doubling time 6 h
[8] = wild type E. coli NCM3722, growth: C-lim chemostat, doubling time 12 h
[9] = wild type E. coli NCM3722, growth: N-lim chemostat, doubling time 6 h
[10] = wild type E. coli NCM3722, growth: N-lim chemostat, doubling time 12 h
[11] = wild type E. coli NCM3722, growth: P-lim chemostat, doubling time 6 h
[12] = wild type E. coli NCM3722, growth: P-lim chemostat, doubling time 12 h

Sequence	total protein half-life in vivo [1]	total protein half-life in vivo [2]	total protein half-life in vivo [3]	total protein half-life in vivo [4]	total protein half-life in vivo [5]	total protein half-life in vivo [6]	total protein half-life in vivo [7]	total protein half-life in vivo [8]	total protein half-life in vivo [9]	total protein half-life in vivo [10]	total protein half-life in vivo [11]	total protein half-life in vivo [12]
MTPHVMKRDGCKVPFKSERIKEAILRAAKAAEVDDADYCATVAAVVSEQMQGRNQVDINEIQTAVENQLMSGPYKQLARAYIEYRHDRDIEREKRGRLNQEIRGLVEQTNASLLNENANKDSKVIPTQRDLLAGIVAKHYARQHLLPRDVVQAHERGDIHYHDLDYSPFFPMFNCMLIDLKGMLTQGFKMGNAEIEPPKSISTATAVTAQIIAQVASHIYGGTTINRIDEVLAPFVTASYNKHRKTAEEWNIPDAEGYANSRTIKECYDAFQSLEYEVNTLHTANGQTPFVTFGFGLGTSWESRLIQESILRNRIAGLGKNRKTAVFPKLVFAIRDGLNHKKGDPNYDIKQLALECASKRMYPDILNYDQVVKVTGSFKTPMGCRSFLGVWENENGEQIHDGRNNLGVISLNLPRIALEAKGDEATFWKLLDERLVLARKALMTRIARLEGVKARVAPILYMEGACGVRLNADDDVSEIFKNGRASISLGYIGIHETINALFGGEHVYDNEQLRAKGIAIVERLRQAVDQWKEETGYGFSLYSTPSENLCDRFCRLDTAEFGVVPGVTDKGYYTNSFHLDVEKKVNPYDKIDFEAPYPPLANGGFICYGEYPNIQHNLKALEDVWDYSYQHVPYYGTNTPIDECYECGFTGEFECTSKGFTCPKCGNHDASRVSVTRRVCGYLGSPDARPFNAGKQEEVKRRVKHLGNGQIG	2.17 ± 0.33 h	1.045 ± 0.0046 h	0.844 ± 0.15 h	1.02 ± 0.11 h	0.762 ± 0.051 h	2.63 ± 0.5 h	2 ± 0.24 h	2.72 ± 0.57 h	1.67 ± 0.91 h	1.49 ± 0.42 h	2.99 ± 0.31 h	4.91 ± 0.075 h
MCGIVGIAGVMPVNQSIYDALTVLQHRGQDAAGIITIDANNCFRLRKANGLVSDVFEARHMQRLQGNMGIGHVRYPTAGSSSASEAQPFYVNSPYGITLAHNGNLTNAHELRKKLFEEKRRHINTTSDSEILLNIFASELDNFRHYPLEADNIFAAIAATNRLIRGAYACVAMIIGHGMVAFRDPNGIRPLVLGKRDIDENRTEYMVASESVALDTLGFDFLRDVAPGEAIYITEEGQLFTRQCADNPVSNPCLFEYVYFARPDSFIDKISVYSARVNMGTKLGEKIAREWEDLDIDVVIPIPETSCDIALEIARILGKPYRQGFVKNRYVGRTFIMPGQQLRRKSVRRKLNANRAEFRDKNVLLVDDSIVRGTTSEQIIEMAREAGAKKVYLASAAPEIRFPNVYGIDMPSATELIAHGREVDEIRQIIGADGLIFQDLNDLIDAVRAENPDIQQFECSVFNGVYVTKDVDQGYLDFLDTLRNDDAKAVQRQNEVENLEMHNEG [P0AG16]	5.35 ± 1.5 h	4.19 ± 0.24 h	2.31 ± 0.34 h	2.37 ± 0.23 h	2.13 ± 0.17 h	2.301 ± 0.0058 h	4.01 ± 0.4 h	5.59 ± 0.33 h	2.25 ± 0.18 h	2.8937 ± 0.00088 h	3.6 ± 0.23 h	6.17 ± 0.076 h
MKRMIALDGAQGEGGGQILRSALSLSMITGQPFTITSIRAGRAKPGLLRQHLTAVKAATEICGATVEGAELGSQRLLFRPGTVRGGDYRFAIGSAGSCTLVLQTVLPALWFADGPSRVEVSGGTDNPSAPPADFIRRVLEPLLAKIGIHQQTTLLRHGFYPAGGGVVATEVSPVASFNTLQLGERGNIVQMRGEVLLAGVPRHVAEREIATLAGSFSLHEQNIHNLPRDQGPGNTVSLEVESENITERFFVVGEKRVSAEVVAAQLVKEVKRYLASTAAVGEYLADQLVLPMALAGAGEFTVAHPSCHLLTNIAVVERFLPVRFSLIETDGVTRVSIE	5.12 ± 0.25 h	4.65 h	5.05 h	4.457 ± 0.014 h	4.17 ± 0.09 h	2.59 h	5.6 ± 0.12 h	11.3 ± 1.7 h	4.52 ± 0.4 h		5.28 ± 0.24 h	10.9 h
MDFSGKNVWVTGAGKGIGYATALAFVEAGAKVTGFDQAFTQEQYPFATEVMDVADAAQVAQVCQRLLAETERLDALVNAAGILRMGATDQLSKEDWQQTFAVNVGGAFNLFQQTMNQFRRQRGGAIVTVASDAAHTPRIGMSAYGASKAALKSLALSVGLELAGSGVRCNVVSPGSTDTDMQRTLWVSDDAEEQRIRGFGEQFKLGIPLGKIARPQEIANTILFLASDLASHITLQDIVVDGGSTLGA						3.26 ± 0.27 h						
MSSKVEQLRAQLNERILVLDGGMGTMIQSYRLNEADFRGERFADWPCDLKGNNDLLVLSKPEVIAAIHNAYFEAGADIIETNTFNSTTIAMADYQMESLSAEINFAAAKLARACADEWTARTPEKPRYVAGVLGPTNRTASISPDVNDPAFRNITFDGLVAAYRESTKALVEGGADLILIETVFDTLNAKAAVFAVKTEFEALGVELPIMISGTITDASGRTLSGQTTEAFYNSLRHAEALTFGLNCALGPDELRQYVQELSRIAECYVTAHPNAGLPNAFGEYDLDADTMAKQIREWAQAGFLNIVGGCCGTTPQHIAAMSRAVEGLAPRKLPEIPVACRLSGLEPLNIGEDSLFVNVGERTNVTGSAKFKRLIKEEKYSEALDVARQQVENGAQIIDINMDEGMLDAEAAMVRFLNLIAGEPDIARVPIMIDSSKWDVIEKGLKCIQGKGIVNSISMKEGVDAFIHHAKLLRRYGAAVVVMAFDEQGQADTRARKIEICRRAYKILTEEVGFPPEDIIFDPNIFAVATGIEEHNNYAQDFIGACEDIKRELPHALISGGVSNVSFSFRGNDPVREAIHAVFLYYAIRNGMDMGIVNAGQLAIYDDLPAELRDAVEDVILNRRDDGTERLLELAEKYRGSKTDDTANAQQAEWRSWEVNKRLEYSLVKGITEFIEQDTEEARQQATRPIEVIEGPLMDGMNVVGDLFGEGKMFLPQVVKSARVMKQAVAYLEPFIEASKEQGKTNGKMVIATVKGDVHDIGKNIVGVVLQCNNYEIVDLGVMVPAEKILRTAKEVNADLIGLSGLITPSLDEMVNVAKEMERQGFTIPLLIGGATTSKAHTAVKIEQNYSGPTVYVQNASRTVGVVAALLSDTQRDDFVARTRKEYETVRIQHGRKKPRTPPVTLEAARDNDFAFDWQAYTPPVAHRLGVQEVEASIETLRNYIDWTPFFMTWSLAGKYPRILEDEVVGVEAQRLFKDANDMLDKLSAEKTLNPRGVVGLFPANRVGDDIEIYRDETRTHVINVSHHLRQQTEKTGFANYCLADFVAPKLSGKADYIGAFAVTGGLEEDALADAFEAQHDDYNKIMVKALADRLAEAFAEYLHERVRKVYWGYAPNENLSNEELIRENYQGIRPAPGYPACPEHTEKATIWELLEVEKHTGMKLTESFAMWPGASVSGWYFSHPDSKYYAVAQIQRDQVEDYARRKGMSVTEVERWLAPNLGYDAD	5.12 ± 0.36 h	4.3 ± 0.33 h	3.71 ± 0.047 h	3.96 ± 0.33 h	3.31 ± 0.087 h	2.73 ± 0.051 h	5.05 ± 0.14 h	8.09 ± 0.26 h	3.489 ± 0.028 h	5.48 ± 0.14 h	5.43 ± 0.51 h	9.81 ± 0.4 h
MNKFEDIRGVAFDLDGTLVDSAPGLAAAVDMALYALELPVAGEERVITWIGNGADVLMERALTWARQERATQRKTMGKPPVDDDIPAEEQVRILRKLFDRYYGEVAEEGTFLFPHVADTLGALQAKGLPLGLVTNKPTPFVAPLLEALDIAKYFSVVIGGDDVQNKKPHPDPLLLVAERMGIAPQQMLFVGDSRNDIQAAKAAGCPSVGLTYGYNYGEAIDLSQPDVIYQSINDLLPALGLPHSENQESKND	3.53 ± 0.37 h	3.12 ± 0.096 h	2.83 h	4.24 ± 1.1 h	3.05 ± 0.14 h	3.21 ± 0.34 h	5.56 ± 0.92 h	8.69 ± 0.53 h	2.87 ± 0.17 h	4.01 ± 0.23 h	4.14 ± 1 h	10.5 ± 1.2 h
MKRLRNKMTTEELAECLGVAKQTVNRWIREKGWKTEKFPGVKGGRARLILVDTQVCEFIQNTPAFHNTPMLMEAEERIAEYAPGARAPAYRQIINAIDNMTDIEQEKVAQFLSREGIRNFLARLDIDESA	6.16 ± 0.29 h					2.58 ± 0.081 h	4.56 h	7.65 ± 1 h		4.62 h		4.26 h
